In patent US20100196390A1 (RINAT NEUROSCIENCE, published 2010):
Where a chain is given by its changes, count along the chain named.

B1: 16-B2 (Fab, V domains shown)
VH: QVQLVQSGAEVKKPGASVKVSCKASGYTFTNYDIIWVRQAPGQGLEWMGYINPYNDGTKYNEKFKGRVTMTRDTSTSTVYMELSSLRSEDTAVYYCARLLKYRRFRYYAIDYWGQGTTVTVSS
VL: DIQMTQSPSSLSASVGDRVTITCRASENVYSNLAWYQQKPGKAPKLLIYAASNLQSGVPSRFSGSGSGTDFTFTISSLQPEDIATYYCQHFWGSPFTFGQGTKLEIK
notes: Fab
B2: 4-C7 (Fab, V domains shown)
VH: B1 VH with D33V, I35L, R106S
VL: B1 VL
notes: Fab
B3: 1-A11 (Fab, V domains shown)
VH: B1 VH with D33V, I35L, R106S
VL: B1 VL with G93Y
notes: Fab
B4: 4B12-19 (Fab, V domains shown)
VH: B1 VH with D56G, G57R, T58R, K59E, Y60A
VL: B1 VL with N28P, L33V, F71Y
notes: Fab
B5: 4B12-2 (Fab, V domains shown)
VH: B1 VH with N55Q, D56G, G57R, T58R, K59E
VL: B1 VL with N28P, L33V, F71Y
notes: Fab
B6: 1-G12 (Fab, V domains shown)
VH: B1 VH with D33V, I35L, R106S
VL: B1 VL with G93Y, T97G
notes: Fab
B7: 4B12-16 (Fab, V domains shown)
VH: B1 VH with P53A, D56G, G57R, T58R, K59E
VL: B1 VL with N28P, L33V, F71Y
notes: Fab
B8: 4B12-13 (Fab, V domains shown)
VH: B1 VH with D56G, G57R, T58R, K59E, E62A
VL: B1 VL with N28P, L33V, F71Y
notes: Fab
B9: 1-E9 (Fab, V domains shown)
VH: B1 VH with D33V, I35L, F105M, R106S
VL: B1 VL with G93Y
notes: Fab
B10: 1-B10 (Fab, V domains shown)
VH: B1 VH with D33V, I35L, R106S, Y107F
VL: B1 VL with H90G, G93Y
notes: Fab
B11: 4B12-5 (Fab, V domains shown)
VH: B1 VH with G57R, T58R, K59E
VL: B1 VL with N28P, L33V, F71Y
notes: Fab
B12: 3-F10 (Fab, V domains shown)
VH: B1 VH with D33V, I35L, R106S
VL: B1 VL with G93Y, T97K
notes: Fab
B13: 1-H6 (Fab, V domains shown)
VH: B1 VH with D33V, I35L, R106S
VL: B1 VL with G93W
notes: Fab
B14: 4B12-21 (Fab, V domains shown)
VH: B1 VH with D56G, G57R, T58R, K59E, K101A
VL: B1 VL with N28P, L33V, F71Y
notes: Fab
B15: 1-D3 (Fab, V domains shown)
VH: B1 VH with D33V, I35L, R106S, Y112E
VL: B1 VL with G93Y
notes: Fab
B16: 4-F10 (Fab, V domains shown)
VH: B1 VH with D33V, I35L, R106S
VL: B1 VL with H90Q, G93Y
notes: Fab
B17: 4B12-7 (Fab, V domains shown)
VH: B1 VH with D56G, G57R, K59E
VL: B1 VL with N28P, L33V, F71Y
notes: Fab
B18: 2-F10 (Fab, V domains shown)
VH: B1 VH with D33V, I35L, R106S
VL: B1 VL with H90V, G93Y
notes: Fab
B19: 3-B11 (Fab, V domains shown)
VH: B1 VH with D33V, I35L
VL: B1 VL with G93Y, P95G
notes: Fab
B20: 3-G5 (Fab, V domains shown)
VH: B1 VH with D33V, I35L, R106S
VL: B1 VL with H90N, G93Y
notes: Fab
B21: 2-B1 (Fab, V domains shown)
VH: B1 VH with D33V, I35L, R106S
VL: B1 VL with H90N, G93Y
notes: Fab
B22: 4B12-6 (Fab, V domains shown)
VH: B1 VH with D56G, T58R, K59E
VL: B1 VL with N28P, L33V, F71Y
notes: Fab
B23: 3-F11 (Fab, V domains shown)
VH: B1 VH with D33V, I35L
VL: B1 VL with G93Y
notes: Fab
B24: 4B12-18 (Fab, V domains shown)
VH: B1 VH with N55A, D56G, G57R, T58R, K59E
VL: B1 VL with N28P, L33V, F71Y
notes: Fab
B25: 4-E1 (Fab, V domains shown)
VH: B1 VH with D33V, I35L, R104A, R106S
VL: B1 VL
notes: Fab
B26: 4-A1 (Fab, V domains shown)
VH: B1 VH with D33V, I35L, R106S
VL: B1 VL with W92Y, G93Y
notes: Fab
B27: 4B12-17 (Fab, V domains shown)
VH: B1 VH with Y54A, D56G, G57R, T58R, K59E
VL: B1 VL with N28P, L33V, F71Y
notes: Fab
B28: 4B12-20 (Fab, V domains shown)
VH: B1 VH with D56G, G57R, T58R, K59E, N61A
VL: B1 VL with N28P, L33V, F71Y
notes: Fab
B29: 3-F7 (Fab, V domains shown)
VH: B1 VH with D33V, I35L
VL: B1 VL with G93K
notes: Fab
B30: 3-H8 (Fab, V domains shown)
VH: B1 VH with D33V, I35L
VL: B1 VL with G93Y, T97V
notes: Fab
B31: 3-C12 (Fab, V domains shown)
VH: B1 VH with D33V, I35L, R106S
VL: B1 VL
notes: Fab
B32: 4B12-3 (Fab, V domains shown)
VH: B1 VH with N55V, D56G, G57R, T58R, K59E
VL: B1 VL with N28P, L33V, F71Y
notes: Fab
B33: 3-G7 (Fab, V domains shown)
VH: B1 VH with D33V, I35L, R106S, I110E
VL: B1 VL with H90N, G93Y
notes: Fab
B34: 4B12-15 (Fab, V domains shown)
VH: B1 VH with N52A, D56G, G57R, T58R, K59E
VL: B1 VL with N28P, L33V, F71Y
notes: Fab
B35: 4-D4 (Fab, V domains shown)
VH: B1 VH with D33V, I35L
VL: B1 VL with G93Y
notes: Fab
B36: 1-B11 (Fab, V domains shown)
VH: B1 VH with D33V, I35L, R106S
VL: B1 VL with H90N, G93Y
notes: Fab
B37: 4B12-4 (Fab, V domains shown)
VH: B1 VH with D56A, G57R, T58R, K59E
VL: B1 VL with N28P, L33V, F71Y
notes: Fab
B38: 4B12-14 (Fab, V domains shown)
VH: B1 VH with N52S, D56G, G57R, T58R, K59E
VL: B1 VL with N28P, L33V, F71Y
notes: Fab
B39: 3-F2 (Fab, V domains shown)
VH: B1 VH with D33V, I35L, R106S
VL: B1 VL with G93Y, T97I
notes: Fab
B40: 2-A2 (Fab, V domains shown)
VH: B1 VH with D33V, I35L, F105L, R106S
VL: B1 VL with G93Y
notes: Fab
B41: 4A6-12 (Fab, V domains shown)
VH: B1 VH with D56R, G57R, T58R
VL: B1 VL with R24H, F71Y
notes: Fab
B42: 1-A6 (Fab, V domains shown)
VH: B1 VH with D33V, I35L, F105H, R106S
VL: B1 VL with G93K
notes: Fab
B43: 4B12-22 (Fab, V domains shown)
VH: B1 VH with D56G, G57R, T58R, K59E, R103A
VL: B1 VL with N28P, L33V, F71Y
notes: Fab
B44: 2-F6 (Fab, V domains shown)
VH: B1 VH with D33V, I35L
VL: B1 VL with G93Y
notes: Fab
B45: 4B12-8 (Fab, V domains shown)
VH: B1 VH with D56G, G57R, T58R
VL: B1 VL with N28P, L33V, F71Y
notes: Fab
B46: 2-G12 (Fab, V domains shown)
VH: B1 VH with D33V, I35L
VL: B1 VL with G93Y, S94R
notes: Fab
B47: 4-B2 (Fab, V domains shown)
VH: B1 VH with D33V, I35L
VL: B1 VL
notes: Fab

Molecular target: TrkB (Homo sapiens (Human), UniProt Q16620 32-430)
Sequence (Q16620 32-430 limits assumed): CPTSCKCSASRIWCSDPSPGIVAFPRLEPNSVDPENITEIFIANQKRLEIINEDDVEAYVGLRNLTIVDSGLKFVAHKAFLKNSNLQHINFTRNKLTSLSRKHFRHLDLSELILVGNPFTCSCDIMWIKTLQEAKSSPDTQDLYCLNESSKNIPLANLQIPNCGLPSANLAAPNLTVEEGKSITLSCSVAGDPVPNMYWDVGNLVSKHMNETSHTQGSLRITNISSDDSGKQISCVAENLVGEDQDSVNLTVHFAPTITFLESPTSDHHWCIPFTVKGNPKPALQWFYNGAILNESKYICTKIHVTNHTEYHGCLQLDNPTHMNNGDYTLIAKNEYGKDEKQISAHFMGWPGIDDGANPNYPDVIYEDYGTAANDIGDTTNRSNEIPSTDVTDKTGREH
Experiment: koff of Fab at 25 C; T1/2=Log2/koff
Procedure, shortened: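 Monovalent Fab fragments were tested at 25° C by surface plasmon resonance on a Biacore instrument, against TrkB extracellular-domain monomer amine-coupled to the chip at low capacity. Fabs were injected low to high as a 3-fold serial dilution from 100 nM for 84 sec, with a 10 minute dissociation after the top sample. The dissociation half-life was calculated from koff, which was fitted to a Langmuir binding model in BIAevaluation. The formula used was T1/2 = Log 2/koff.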

| Binder | T1/2 [min] |
| --- | --- |
| B1 | 5 |
| B2 | 1.4 |
| B3 | 1.08 |
| B4 | 13.1 |
| B5 | 5.8 |
| B6 | 0.4 |
| B7 | 5.6 |
| B8 | 13.7 |
| B9 | 1.04 |
| B10 | 0.55 |
| B11 | 16.1 |
| B12 | 0.79 |
| B13 | 0.62 |
| B14 | 0.3 |
| B15 | 0.92 |
| B16 | 1.03 |
| B17 | 7.6 |
| B18 | 0.48 |
| B19 | 0.87 |
| B20 | 1.21 |
| B21 | 0.32 |
| B22 | 3.7 |
| B23 | 1.16 |
| B24 | 3.8 |

| Binder | T1/2 [min] |
| --- | --- |
| B25 | 0.71 |
| B26 | 0.93 |
| B27 | 1 |
| B28 | 12.2 |
| B29 | 1.01 |
| B30 | 0.81 |
| B31 | 0.84 |
| B32 | 6.6 |
| B33 | 0.92 |
| B34 | 2.7 |
| B35 | 1.24 |
| B36 | 0.72 |
| B37 | 11.4 |
| B38 | 3.2 |
| B39 | 1.38 |
| B40 | 0.57 |
| B41 | 74.2 |
| B42 | 0.42 |
| B43 | 3.5 |
| B44 | 0.23 |
| B45 | 13.8 |
| B46 | 0.3 |
| B47 | 1.33 |
